± gives the uncertainty stated by the source.

The data set is described as follows: abundance fitness (aPCA) (normalised: wild type 0, dead -1); higher = more abundant; growth selection in yeast, the domain comes from the species named. The settings on record: Homo sapiens.
“Lipoamide acyltransferase component of branched-chain alpha-keto acid dehydrogenase complex, mitochondrial Y208A, P11182” had an abundance fitness of 0.018 ± 0.036. “Lipoamide acyltransferase component of branched-chain alpha-keto acid dehydrogenase complex, mitochondrial Y208C, P11182”: the abundance fitness was 0.037 ± 0.092. With “Lipoamide acyltransferase component of branched-chain alpha-keto acid dehydrogenase complex, mitochondrial Y208D, P11182”, the abundance fitness was -0.213 ± 0.06. With “Lipoamide acyltransferase component of branched-chain alpha-keto acid dehydrogenase complex, mitochondrial Y208E, P11182”, the abundance fitness was -0.032 ± 0.041. The substance “Lipoamide acyltransferase component of branched-chain alpha-keto acid dehydrogenase complex, mitochondrial Y208F, P11182” returned an abundance fitness of -0.061 ± 0.084. “Lipoamide acyltransferase component of branched-chain alpha-keto acid dehydrogenase complex, mitochondrial Y208G, P11182” registered an abundance fitness of -0.172 ± 0.036.

With “Lipoamide acyltransferase component of branched-chain alpha-keto acid dehydrogenase complex, mitochondrial Y208H, P11182”, the abundance fitness was -0.075 ± 0.097. In the case of “Lipoamide acyltransferase component of branched-chain alpha-keto acid dehydrogenase complex, mitochondrial Y208I, P11182”, the abundance fitness is -0.072 ± 0.063. With “Lipoamide acyltransferase component of branched-chain alpha-keto acid dehydrogenase complex, mitochondrial Y208K, P11182” the figure was 0.051 ± 0.06; with “Lipoamide acyltransferase component of branched-chain alpha-keto acid dehydrogenase complex, mitochondrial Y208L, P11182”, -0.032 ± 0.047.

Substance “Lipoamide acyltransferase component of branched-chain alpha-keto acid dehydrogenase complex, mitochondrial Y208M, P11182” came in with an abundance fitness of 0.012 ± 0.052. With “Lipoamide acyltransferase component of branched-chain alpha-keto acid dehydrogenase complex, mitochondrial Y208N, P11182” the figure was -0.162 ± 0.061; with “Lipoamide acyltransferase component of branched-chain alpha-keto acid dehydrogenase complex, mitochondrial Y208P, P11182”, -0.283 ± 0.044.

For “Lipoamide acyltransferase component of branched-chain alpha-keto acid dehydrogenase complex, mitochondrial Y208S, P11182”, the abundance fitness was -0.095 ± 0.041. In the case of “Lipoamide acyltransferase component of branched-chain alpha-keto acid dehydrogenase complex, mitochondrial Y208T, P11182” it was -0.073 ± 0.074; in that of “Lipoamide acyltransferase component of branched-chain alpha-keto acid dehydrogenase complex, mitochondrial Y208V, P11182”, -0.02 ± 0.039. In the case of “Lipoamide acyltransferase component of branched-chain alpha-keto acid dehydrogenase complex, mitochondrial Y208W, P11182” it was -0.186 ± 0.05.

Nanos homolog 2 D85A, P60321 returned an abundance fitness of 0.03 ± 0.11. Regarding Nanos homolog 2 D106A, P60321, the abundance fitness is -0.206 ± 0.098. Nanos homolog 2 H74A, P60321 had an abundance fitness of -0.238 ± 0.12. With Nanos homolog 2 H95Q, P60321 the figure was -0.092 ± 0.071; with Nanos homolog 2 I92Y, P60321, -0.308 ± 0.14. On to Nanos homolog 2 K67R, P60321, for which the abundance fitness was -0.197 ± 0.05. In the case of Nanos homolog 2 K82R, P60321 it was -0.243 ± 0.069; in that of Nanos homolog 2 K112R, P60321, -0.171 ± 0.096. In the case of Nanos homolog 2 L111K, P60321 it was 0.292 ± 0.074. With Nanos homolog 2 Q80C, P60321 the figure was 0.191 ± 0.11; with Nanos homolog 2 Q107R, P60321, -0.016 ± 0.12. The substance Nanos homolog 2 R73E, P60321 yielded an abundance fitness of 0.102 ± 0.067. Nanos homolog 2 S77R, P60321 showed an abundance fitness of -0.003 ± 0.069. Turning to Nanos homolog 2 V87G, P60321, the abundance fitness was -0.082 ± 0.088. In the case of Nanos homolog 2 V89S, P60321 it was 0.094 ± 0.066; in that of Nanos homolog 2 V97I, P60321, 0.008 ± 0.12; in that of Nanos homolog 2 V100L, P60321, -0.123 ± 0.077. For the substance Nanos homolog 2 Y76F, P60321, the abundance fitness was -0.14 ± 0.13.

Turning to Nanos homolog 2 Y113H, P60321, the abundance fitness turned out to be 0.057 ± 0.11.

(Values after the Human Domainome abundance scans (Beltran et al. 2025).)
